{"source": "paper PMC12218921", "about": "“An adaptive peptide-binding site in ubiquitin receptor hRpn13 revealed by structural studies” (Nature Communications, 2025)", "binders": {"B1": {"name": "hRpn13_ΔMTT (domain or fragment, human)", "chain": "GSSGALFPSLVPGSRGASNKYLVEFRAGKMSLKGTTVTPDKRKGLVYIQQTDDSLIHFCWKDRTSGNVEDDLIIFPDDCEFKRVPQCPSGRVYVLKFKAGSKRLFFWMQEPKTDQDEEHCRKVNEYLNNPPMPGALGASGSSGHELSAL", "notes": "hRpn13 (ADRM1), human, hRpn13 (1-150) without M1-T3; 15N-labelled for NMR; also called hRpn13 Pru variant with ENT M1 – T3, aG, and bP deleted; source: E. coli BL21 (DE3), purified (glutathione sepharose, thrombin cleavage, Superdex 75); not shown: GST, N-terminal, cleaved"}, "B2": {"name": "TAMRA-labeled hRpn2 (940–953) (peptide)", "peptide": "QEPEPPEPFEYIDD", "modifications": "also: TAMRA attached, position not given here", "notes": "also called TAMRA-hRpn2; source: bought: New England Peptide"}}, "key": {"[1]": {"molecular_target": "the molecule itself", "test": "crystal structure; hRpn13 (1–150) at 560 μM in 20 mM HEPES pH 7.5, 100 mM NaCl, 1 mM TCEP; microbatch-under-oil at 4 °C with 0.1 M sodium acetate pH 4.6, 22% PEG3350; one molecule per asymmetric unit, ENT at the interface of Pru molecules of the lattice; 1.85 Å"}, "K48-diUb^ENT": {"molecular_target": "T1, K48-diUb^ENT (human, UniProt P0CG48 1-76; P0CG48 1-76, K48R, G76 joined by an isopeptide bond to K48 of the other ubiquitin | K48 joined by an isopeptide bond to G76 of Ub-K48R)", "T1 construct": "Ub-K48R (distal, by the methods): ubiquitin, human; Ub-ENT (proximal, by the methods): ubiquitin, human; 6-residue linker added to the ubiquitin C-terminal end; Two ubiquitins joined covalently K48-G76; The results call the extended moiety distal, the methods call it proximal; also called K48-linked diubiquitin with Ub-ENT; source: made enzymatically (E1 from R&D Systems, E2-25K) from ubiquitin …", "test": "NMR titration; 1H-15N HSQC of 0.1 mM 15N-labeled hRpn13_ΔMTT alone and with unlabeled ligand (peptides at varying molar ratios up to 20-fold excess; hRpn2 (940-953) or ubiquitin equimolar, alone or together with 20-fold EDGEGEE; K48-diUb at 4:1, 2:1 and 1:1 hRpn13 to diUb); NMR buffer (20 mM sodium phosphate pH 6.5, 50 mM NaCl, 1 mM TCEP, 10% D2O), 25 °C, 600 MHz", "settings": "both partners purified"}, "K48-diUb^D77": {"molecular_target": "T2, K48-diUb^D77 (human, UniProt P0CG48 1-76; P0CG48 1-76, K48R, G76 joined by an isopeptide bond to K48 of the other ubiquitin | K48 joined by an isopeptide bond to G76 of Ub-K48R)", "T2 construct": "Ub-K48R (distal, by the methods): ubiquitin, human; Ub-D77 (proximal, by the methods): ubiquitin, human; additional aspartate at position 77 (Ub-D77); Two ubiquitins joined covalently K48-G76; The results call the extended moiety distal, the methods call it proximal; also called K48-linked diubiquitin; source: made enzymatically (E1 from R&D Systems, E2-25K) from ubiquitin proteins expressed in …", "test": "NMR titration; 1H-15N HSQC of 0.1 mM 15N-labeled hRpn13_ΔMTT alone and with unlabeled ligand (peptides at varying molar ratios up to 20-fold excess; hRpn2 (940-953) or ubiquitin equimolar, alone or together with 20-fold EDGEGEE; K48-diUb at 4:1, 2:1 and 1:1 hRpn13 to diUb); NMR buffer (20 mM sodium phosphate pH 6.5, 50 mM NaCl, 1 mM TCEP, 10% D2O), 25 °C, 600 MHz", "settings": "both partners purified"}, "ubiquitin": {"molecular_target": "T3, ubiquitin (human, UniProt P0CG48 1-76)", "T3 construct": "ubiquitin, human, the 76-residue cut product of the polyubiquitin precursor; source: E. coli Rosetta 2(DE3), untagged, purified (cation exchange, SEC)", "test": "NMR titration; 1H-15N HSQC of 0.1 mM 15N-labeled hRpn13_ΔMTT alone and with unlabeled ligand (peptides at varying molar ratios up to 20-fold excess; hRpn2 (940-953) or ubiquitin equimolar, alone or together with 20-fold EDGEGEE; K48-diUb at 4:1, 2:1 and 1:1 hRpn13 to diUb); NMR buffer (20 mM sodium phosphate pH 6.5, 50 mM NaCl, 1 mM TCEP, 10% D2O), 25 °C, 600 MHz", "settings": "both partners purified"}, "K48-diUb^EDGEGEE": {"molecular_target": "T4, K48-diUb^EDGEGEE (human, UniProt P0CG48 1-76; P0CG48 1-76, K48R, G76 joined by an isopeptide bond to K48 of the other ubiquitin | K48 joined by an isopeptide bond to G76 of Ub-K48R)", "T4 construct": "Ub-K48R (distal, by the methods): ubiquitin, human; Ub-EDGEGEE (proximal, by the methods): ubiquitin, human; 6-residue linker added to the ubiquitin C-terminal end; Two ubiquitins joined covalently K48-G76; The results call the extended moiety distal, the methods call it proximal; also called K48-linked diubiquitin with Ub-EDGEGEE; source: made enzymatically (E1 from R&D Systems, E2-25K) from …", "test": "NMR titration; 1H-15N HSQC of 0.1 mM 15N-labeled hRpn13_ΔMTT alone and with unlabeled ligand (peptides at varying molar ratios up to 20-fold excess; hRpn2 (940-953) or ubiquitin equimolar, alone or together with 20-fold EDGEGEE; K48-diUb at 4:1, 2:1 and 1:1 hRpn13 to diUb); NMR buffer (20 mM sodium phosphate pH 6.5, 50 mM NaCl, 1 mM TCEP, 10% D2O), 25 °C, 600 MHz", "settings": "both partners purified"}, "[2]": {"molecular_target": "B2", "test": "fluorescence polarisation; hRpn13_ΔMTT titrated against TAMRA-hRpn2 (940–953); PBS with 1 mM TCEP, room temperature; [Agonist] vs response (three parameters) fit", "settings": "both partners purified"}, "hRpn13_ΔMTT": {"molecular_target": "B1", "test": "fluorescence polarisation; competition: unlabeled peptide at various concentrations preincubated with 80 nM hRpn13_ΔMTT, then 10 nM TAMRA-hRpn2 (940–953) added; PBS with 1 mM TCEP, room temperature; [Inhibitor] vs response (three parameters) fit; estimated EC50", "settings": "both partners purified"}}, "note": "No end group written: not given here.", "data": [{"binder": "hRpn13 Pru (1–150) (domain or fragment, human, four non-native residues (aG-bP-cG-dS) left at the N-terminus after PreScission cleavage of the purification tag; hRpn13 (ADRM1), human, residues 1-150 holding the Pru domain; 15N-labelled (M9 medium) for the NMR experiments, unlabelled (LB) for crystallography; S4-N20 are not seen in the electron density; also called hRpn13 (1–150); Pru-A; source: E. coli BL21(DE3) pLysS, purified (Talon resin, …)) GPGSMTTSGALFPSLVPGSRGASNKYLVEFRAGKMSLKGTTVTPDKRKGLVYIQQTDDSLIHFCWKDRTSGNVEDDLIIFPDDCEFKRVPQCPSGRVYVLKFKAGSKRLFFWMQEPKTDQDEEHCRKVNEYLNNPPMPGALGASGSSGHELSAL", "values": [{"measurement": "binding result", "setting": "[1]", "result": "binds"}]}, {"binder": "B1", "values": [{"measurement": "binding result", "setting": "K48-diUb^ENT", "result": "binds"}, {"measurement": "binding result", "setting": "K48-diUb^D77", "result": "binds"}, {"measurement": "binding result", "setting": "ubiquitin", "result": "binds"}, {"measurement": "binding result", "setting": "K48-diUb^EDGEGEE", "result": "binds"}, {"measurement": "EC50", "setting": "[2]", "result": "0.043 ± 0.007", "unit": "µM"}]}, {"binder": "B2", "values": [{"measurement": "binding result", "setting": "hRpn13_ΔMTT", "result": "binds"}]}, {"binder": "QEPEPPEPFEYIDD (source: synthetic peptide (GenScript Biotech; for the fluorescence polarization assay bought: New England Peptide))", "note": "[hRpn2 (940–953)]", "values": [{"measurement": "EC50", "setting": "hRpn13_ΔMTT", "result": "0.32 ± 0.02", "unit": "µM"}]}, {"binder": "PPEPFEYIDD (source: bought: New England Peptide)", "note": "[hRpn2 (944–953)]", "values": [{"measurement": "EC50", "setting": "hRpn13_ΔMTT", "result": "87 ± 6", "unit": "µM"}]}, {"binder": "EDGEGEE (acidic peptide chosen by the authors; also called acidic peptide; source: synthetic peptide (GenScript))", "note": "[EDGEGEE peptide]", "values": [{"measurement": "EC50", "setting": "hRpn13_ΔMTT", "result": "637 ± 51", "unit": "µM"}]}]}
